Abundance fitness data for 167 variants are collected here from the Human Domainome abundance scans (Beltran et al. 2025).

± gives the uncertainty stated by the source.

B1: Serine/threonine-protein kinase A-Raf, residues 21 to 89; numbered along this chain, P10398 (parent)
chain: VKVYLPNKQRTVVTVRDGMSVYDSLDKALKVRGLNQDCCVVYRLIKGRKTVTAWDTAIAPLDGEELIVE
B2: POU domain, class 2, transcription factor 1, residues 285 to 354; numbered along this chain, P14859 (parent)
chain: LEELEQFAKTFKQRRIKLGFTQGDVGLAMGKLYGNDFSQTTISRFEALNLSFKNMCKLKPLLEKWLNDAE

The variants in one data set derive from B1. As to the kind of experiment: abundance fitness (aPCA) (normalised: wild type 0, dead -1); higher = more abundant; growth selection in yeast, the domain comes from the species named. The settings on record: Homo sapiens.
Regarding A59L, the abundance fitness is -0.071 ± 0.049.

As for A59K, the abundance fitness was -0.076 ± 0.067.

For A59D, the abundance fitness is -0.08 ± 0.11.

Turning to A59I, the abundance fitness came to 0.131 ± 0.1.

In the case of D37G, the abundance fitness is -0.219 ± 0.061.

For D37A, the abundance fitness was -0.39 ± 0.097.

Turning to R16L, the abundance fitness is -0.072 ± 0.042.

Regarding R16P, the abundance fitness is -0.117 ± 0.063.

R16G: the abundance fitness was -0.108 ± 0.037.

In the case of R16H, the abundance fitness worked out at 0.191 ± 0.081.

For the variant R16N, the abundance fitness is -0.147 ± 0.097.

Regarding P60K, the abundance fitness came to 0.024 ± 0.057.

As for P60Q, the abundance fitness was determined as 0.121 ± 0.066.

With P60F, the abundance fitness was -0.036 ± 0.13.

With P60H, the abundance fitness was -0.06 ± 0.18.

T50V: the abundance fitness turned out to be 0.362 ± 0.18.

For the variant T50R, the abundance fitness was -0.173 ± 0.35.

As for T50S, the abundance fitness is -0.402 ± 0.18.

For the variant L44G, the abundance fitness was -0.767 ± 0.09.

As for L44C, the abundance fitness is -0.684 ± 0.38.

Consider L44F, for which the abundance fitness was -0.197 ± 0.13.

Consider V51A, for which the abundance fitness was -0.102 ± 0.068.

For the variant V51E, the abundance fitness was -0.128 ± 0.064.

In the case of V51Q, the abundance fitness is -0.032 ± 0.064.

For V12G, the abundance fitness is -0.983 ± 0.14.

For V12R, the abundance fitness was -0.096 ± 0.04.

For the variant V12I, the abundance fitness is -0.117 ± 0.36.

For Y42F, the abundance fitness was -0.004 ± 0.069.

As to Y42Q, the abundance fitness is -0.945 ± 0.38.

On to Y42D, for which the abundance fitness is -0.928 ± 0.21.

Take Y42N: the abundance fitness was -0.159 ± 0.25.

Y42V: the abundance fitness is -0.864 ± 0.1.

Consider Y42W, for which the abundance fitness was -0.366 ± 0.064.

As for Y42P, the abundance fitness is -0.926 ± 0.15.

For the variant Y42K, the abundance fitness was -0.481 ± 0.16.

As to D62H, the abundance fitness was -0.073 ± 0.12.

On to D62R, for which the abundance fitness was -0.049 ± 0.042.

With D62C, the abundance fitness is 0.13 ± 0.2.

Consider R32H, for which the abundance fitness worked out at 0.1 ± 0.18.

Regarding R32V, the abundance fitness worked out at 0.019 ± 0.055.

On to R32P, for which the abundance fitness is -0.59 ± 0.19.

In the case of I45G, the abundance fitness was -0.198 ± 0.12.

As to I45K, the abundance fitness amounted to 0.089 ± 0.18.

As to I45D, the abundance fitness is -0.1 ± 0.13.

Turning to I45R, the abundance fitness is -0.098 ± 0.053.

Consider I45S, for which the abundance fitness was -0.087 ± 0.071.

Take L34M: the abundance fitness was -0.135 ± 0.059.

Take L34Y: the abundance fitness was -0.459 ± 0.22.

Turning to K30V, the abundance fitness is -0.713 ± 0.094.

K30H: the abundance fitness was -0.83 ± 0.29.

With K30C, the abundance fitness is -0.583 ± 0.13.

Take K30G: the abundance fitness was -0.426 ± 0.053.

Regarding K30Y, the abundance fitness is -0.403 ± 0.13.

On to V3L, for which the abundance fitness was -0.191 ± 0.037.

As for V3T, the abundance fitness was -0.985 ± 0.15.

For V3G, the abundance fitness is -0.966 ± 0.18.

Regarding V3E, the abundance fitness was -0.745 ± 0.12.

Turning to V3Y, the abundance fitness is -0.016 ± 0.14.

For the variant V3D, the abundance fitness was -0.794 ± 0.2.

Regarding I58A, the abundance fitness was -0.201 ± 0.085.

On to G63P, for which the abundance fitness is -0.533 ± 0.11.

As for G63K, the abundance fitness was -0.722 ± 0.17.

Consider G63V, for which the abundance fitness was -0.097 ± 0.06.

For G63C, the abundance fitness is -0.055 ± 0.07.

For the variant M19I, the abundance fitness was -0.413 ± 0.11.

In the case of M19R, the abundance fitness is -0.218 ± 0.032.

In the case of M19D, the abundance fitness is -0.09 ± 0.14.

M19A: the abundance fitness was -0.17 ± 0.062.

Regarding M19T, the abundance fitness was -0.034 ± 0.071.

Regarding M19H, the abundance fitness is -0.491 ± 0.4.

V41F: the abundance fitness is -0.846 ± 0.24.

V41L: the abundance fitness is -0.143 ± 0.036.

For the variant V41C, the abundance fitness was -0.15 ± 0.072.

With V41Q, the abundance fitness was -0.849 ± 0.17.

Regarding T14M, the abundance fitness is -0.113 ± 0.083.

With T14C, the abundance fitness was -0.251 ± 0.087.

For T14A, the abundance fitness is -0.078 ± 0.058.

Consider T14F, for which the abundance fitness is -0.01 ± 0.092.

For the variant T14S, the abundance fitness is -0.156 ± 0.067.

For T14H, the abundance fitness was -0.213 ± 0.32.

As to T14D, the abundance fitness is -0.205 ± 0.098.

As for T14Q, the abundance fitness was determined as 0.034 ± 0.065.

Consider T14Y, for which the abundance fitness was -0.415 ± 0.37.

For G47V, the abundance fitness is -0.863 ± 0.097.

In the case of G47W, the abundance fitness was -0.888 ± 0.17.

Turning to G47E, the abundance fitness is -0.573 ± 0.083.

For the variant G47K, the abundance fitness is -0.768 ± 0.21.

Take G47R: the abundance fitness was -0.841 ± 0.11.

Consider E64W, for which the abundance fitness was -0.215 ± 0.12.

As to E64F, the abundance fitness is -0.867 ± 0.28.

In the case of L5T, the abundance fitness is -0.916 ± 0.13.

Turning to L5Q, the abundance fitness is -0.87 ± 0.21.

On to L5A, for which the abundance fitness is -0.772 ± 0.15.

For L5V, the abundance fitness is -0.896 ± 0.12.

Take Y4H: the abundance fitness came out at 0.048 ± 0.094.

Y4C: the abundance fitness is -0.366 ± 0.098.

As to Y4W, the abundance fitness was -0.045 ± 0.05.

Y4E: the abundance fitness is -0.133 ± 0.048.

Another data set covers variants of B2. The data set is described as above. The settings on record: Homo sapiens.
Regarding A69V, the abundance fitness amounted to 0.014 ± 0.024.

Regarding A69P, the abundance fitness is -0.112 ± 0.023.

Take A69C: the abundance fitness is -0.001 ± 0.022.

For the variant A69R, the abundance fitness stood at 0.013 ± 0.022.

Take A69K: the abundance fitness turned out to be 0.004 ± 0.024.

For A69E, the abundance fitness is 0.016 ± 0.04.

Turning to A69I, the abundance fitness was -0.027 ± 0.021.

Consider A69H, for which the abundance fitness was -0.04 ± 0.028.

With A69N, the abundance fitness is -0.04 ± 0.023.

Take A69Q: the abundance fitness came to 0.057 ± 0.029.

For the variant A69T, the abundance fitness is -0.012 ± 0.019.

Take A69W: the abundance fitness is -0.078 ± 0.027.

Regarding A69S, the abundance fitness is -0.004 ± 0.018.

For A69M, the abundance fitness amounted to 0.003 ± 0.02.

A69Y: the abundance fitness is -0.038 ± 0.021.

With A69L, the abundance fitness is -0.064 ± 0.02.

Take L66N: the abundance fitness is -0.848 ± 0.17.

Take L66R: the abundance fitness is -0.667 ± 0.046.

With L66A, the abundance fitness is -0.037 ± 0.038.

On to L66E, for which the abundance fitness is -0.433 ± 0.039.

In the case of L66K, the abundance fitness was -0.476 ± 0.028.

With L66F, the abundance fitness is -0.258 ± 0.057.

As for L66W, the abundance fitness is -0.355 ± 0.043.

In the case of L66S, the abundance fitness is -0.167 ± 0.039.

For the variant L66H, the abundance fitness is -0.474 ± 0.11.

L66V: the abundance fitness was -0.003 ± 0.023.

Regarding L66C, the abundance fitness was -0.071 ± 0.068.

Turning to L66I, the abundance fitness was -0.017 ± 0.046.

For the variant L66D, the abundance fitness was -0.854 ± 0.073.

As for L66Q, the abundance fitness was -0.279 ± 0.056.

For L66G, the abundance fitness is -0.411 ± 0.033.

Turning to L66M, the abundance fitness is 0.01 ± 0.033.

Turning to L66Y, the abundance fitness is -0.11 ± 0.084.

On to L66T, for which the abundance fitness was -0.206 ± 0.052.

Regarding W65V, the abundance fitness is -0.262 ± 0.073.

Consider W65T, for which the abundance fitness was -0.294 ± 0.045.

As to W65Y, the abundance fitness was -0.275 ± 0.25.

In the case of W65R, the abundance fitness is -0.753 ± 0.035.

For W65N, the abundance fitness was -1.05 ± 0.31.

For W65Q, the abundance fitness was -0.594 ± 0.046.

Consider W65S, for which the abundance fitness is -0.728 ± 0.062.

As to W65P, the abundance fitness is -0.693 ± 0.086.

Take E70V: the abundance fitness is -0.083 ± 0.087.

With E70R, the abundance fitness is -0.36 ± 0.32.

Turning to E70S, the abundance fitness is 0.076 ± 0.22.

With E70P, the abundance fitness is -0.349 ± 0.23.

As to E70W, the abundance fitness is 0.071 ± 0.15.

For E70D, the abundance fitness was -0.029 ± 0.031.

For E70K, the abundance fitness was determined as 0.011 ± 0.12.

As to E70I, the abundance fitness is -0.048 ± 0.16.

In the case of E70G, the abundance fitness was -0.13 ± 0.26.

Turning to N67D, the abundance fitness was found to be 0.024 ± 0.19.

Consider N67S, for which the abundance fitness was -0.054 ± 0.27.

On to D68V, for which the abundance fitness is -0.047 ± 0.027.

Turning to D68R, the abundance fitness is -0.022 ± 0.021.

Turning to D68A, the abundance fitness was -0.024 ± 0.023.

Regarding D68K, the abundance fitness was -0.018 ± 0.016.

For D68W, the abundance fitness was -0.086 ± 0.028.

D68P: the abundance fitness was -0.419 ± 0.035.

As to D68N, the abundance fitness came to 0.006 ± 0.024.

In the case of D68Y, the abundance fitness is -0.063 ± 0.033.

For the variant D68S, the abundance fitness turned out to be 0.026 ± 0.029.

On to D68T, for which the abundance fitness was -0.048 ± 0.024.

As to D68F, the abundance fitness is -0.011 ± 0.08.

With D68H, the abundance fitness was -0.012 ± 0.05.

Regarding D68Q, the abundance fitness was 0.001 ± 0.023.

As for D68G, the abundance fitness is -0.011 ± 0.019.

In the case of D68M, the abundance fitness was -0.034 ± 0.022.

Turning to D68C, the abundance fitness was -0.106 ± 0.058.
